Data as given in article PMC8461720 (Journal of Parkinson's Disease, 2021).
Like-named read-outs stand apart in the source and are kept apart here.

Columns and labels:
TrkB = TrkB (Homo sapiens, UniProt Q16620); experiment: Luciferase reporter assay in MG87 cells expressing TrkB; type: cell-based; conditions: BDNF 100 ng/ml, overnight
GFRα2-RET = GFRα2-RET (Homo sapiens, UniProt P07949); experiment: RET phosphorylation assay, GFRα2 transfected MG87RET cells; type: cell-based; conditions: NRTN 200 ng/ml, 15 min; vehicle 0.86±0.15
Sequence of GFRα2-RET (P07949 29-1114): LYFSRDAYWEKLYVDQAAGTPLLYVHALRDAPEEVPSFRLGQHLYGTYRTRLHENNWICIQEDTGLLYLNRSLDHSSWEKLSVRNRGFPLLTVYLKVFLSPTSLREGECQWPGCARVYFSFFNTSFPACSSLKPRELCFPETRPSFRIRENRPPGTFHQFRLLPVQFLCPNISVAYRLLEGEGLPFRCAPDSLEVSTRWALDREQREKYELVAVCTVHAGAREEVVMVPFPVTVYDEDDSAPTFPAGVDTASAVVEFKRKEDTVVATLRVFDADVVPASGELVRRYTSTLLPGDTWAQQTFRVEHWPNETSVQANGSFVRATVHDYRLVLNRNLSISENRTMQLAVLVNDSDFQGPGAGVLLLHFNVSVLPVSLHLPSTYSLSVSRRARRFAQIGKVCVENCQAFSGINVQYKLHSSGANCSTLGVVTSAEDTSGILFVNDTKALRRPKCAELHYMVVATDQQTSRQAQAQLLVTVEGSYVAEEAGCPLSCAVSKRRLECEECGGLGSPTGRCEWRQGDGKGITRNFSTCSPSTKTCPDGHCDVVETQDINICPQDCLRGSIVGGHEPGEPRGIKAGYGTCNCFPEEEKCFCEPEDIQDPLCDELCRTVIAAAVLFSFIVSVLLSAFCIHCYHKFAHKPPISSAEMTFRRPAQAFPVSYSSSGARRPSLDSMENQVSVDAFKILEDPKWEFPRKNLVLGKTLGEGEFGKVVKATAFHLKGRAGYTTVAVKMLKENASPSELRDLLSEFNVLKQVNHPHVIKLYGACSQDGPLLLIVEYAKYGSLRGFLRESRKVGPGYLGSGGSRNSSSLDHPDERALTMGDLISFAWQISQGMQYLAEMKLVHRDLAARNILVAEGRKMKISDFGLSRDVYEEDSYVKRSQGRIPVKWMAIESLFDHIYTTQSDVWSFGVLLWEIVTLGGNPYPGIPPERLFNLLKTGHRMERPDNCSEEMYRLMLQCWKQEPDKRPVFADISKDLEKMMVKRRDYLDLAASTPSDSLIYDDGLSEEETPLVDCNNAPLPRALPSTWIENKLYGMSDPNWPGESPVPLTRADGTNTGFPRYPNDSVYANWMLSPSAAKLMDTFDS

ERK [1] = type: cell-based, murine; conditions: NRTN 200 ng/ml; vehicle 0.18±0.04
AKT [2] = type: cell-based, murine; conditions: NRTN 200 ng/ml; vehicle 0.63±0.02
6-OHDA lesioned rats [3] = experiment: TH-ir cell bodies in the SNpc, CNN algorithm; type: in vivo, rat; conditions: GDNF 3 μg/24 h
6-OHDA lesioned rats [4] = experiment: TH-ir neurite number in the striatum; type: in vivo, rat; conditions: BT44 0.1 and 0.3 μg/24 h, GDNF 3 μg/24 h; newly developed algorithm
[5] = test system: midbrain dopamine neurons exposed to MPP+; experiment: Survival of MPP+-challenged dopamine neurons; type: cell-based, mouse; conditions: GDNF 10 ng/ml (≃[…]) with MPP+ 2 μM, 48 hours; vehicle 267.7±20.4
6-OHDA lesioned rats [6] = experiment: Optical density of DAT-ir fibers in the dorsal striatum; conditions: GDNF 3 μg/24 h
6-OHDA lesioned rats [7] = experiment: Amphetamine-induced rotational assay, unilateral 6-OHDA lesion; type: in vivo, rat; conditions: GDNF 3 μg/24 h intrastriatal 14 days; 12 weeks post lesion
dopamine neurons = conditions: cited from earlier work
[8] = test system: wild-type midbrain dopamine neurons (TH-ir cells); experiment: Survival assay for primary dopamine neurons, wild-type; type: cell-based, mouse; conditions: GDNF 10 ng/ml ([…]), 5 days in vitro; vehicle 226.3±6.6
[9] = test system: RET knockout midbrain dopamine neurons (TH-ir cells); experiment: Survival assay for primary dopamine neurons, RET knockout; type: cell-based, mouse; conditions: GDNF 10 ng/ml (≃[…]), 5th day in vitro
ERK [10] = type: cell-based, murine; conditions: GDNF 200 ng/ml; vehicle 0.56±0.13
6-OHDA lesioned rats [11] = experiment: Optical density of TH-ir fibers in the dorsal striatum; conditions: GDNF 3 μg/24 h; 12 weeks post lesion
AKT [12] = type: cell-based, murine; conditions: GDNF 200 ng/ml; vehicle 0.91±0.20
6-OHDA lesioned rats [13] = experiment: DAT-ir cell bodies in the SNpc; type: in vivo, rat; conditions: GDNF 3 μg/24 h
RET = RET (Homo sapiens, UniProt P07949); experiment: RET phosphorylation assay, GFP transfected MG87RET cells; type: cell-based; conditions: GDNF in the absence of GFRα1
Sequence of RET (P07949 29-1114): as above

GFRα1-RET = GFRα1-RET (Homo sapiens, UniProt P07949); experiment: RET phosphorylation assay; type: cell-based; conditions: GDNF 200 ng/ml, 15 min; vehicle 0.66±0.22
Sequence of GFRα1-RET (P07949 29-1114): as above
Sequence of GFRα1-RET (P56159 25-429 partner limits assumed): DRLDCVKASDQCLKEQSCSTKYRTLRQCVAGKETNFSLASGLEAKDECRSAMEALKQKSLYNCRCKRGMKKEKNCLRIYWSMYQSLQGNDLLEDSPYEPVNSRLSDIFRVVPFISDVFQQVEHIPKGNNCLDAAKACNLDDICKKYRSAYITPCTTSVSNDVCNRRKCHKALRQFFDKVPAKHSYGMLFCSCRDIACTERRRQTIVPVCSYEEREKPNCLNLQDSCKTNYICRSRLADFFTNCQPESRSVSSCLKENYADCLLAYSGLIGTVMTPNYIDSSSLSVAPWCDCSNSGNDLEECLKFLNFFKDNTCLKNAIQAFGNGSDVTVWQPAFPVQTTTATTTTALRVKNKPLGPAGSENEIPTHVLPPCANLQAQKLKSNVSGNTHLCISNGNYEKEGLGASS

Sequence of TrkB (Q16620 32-822, species assumed): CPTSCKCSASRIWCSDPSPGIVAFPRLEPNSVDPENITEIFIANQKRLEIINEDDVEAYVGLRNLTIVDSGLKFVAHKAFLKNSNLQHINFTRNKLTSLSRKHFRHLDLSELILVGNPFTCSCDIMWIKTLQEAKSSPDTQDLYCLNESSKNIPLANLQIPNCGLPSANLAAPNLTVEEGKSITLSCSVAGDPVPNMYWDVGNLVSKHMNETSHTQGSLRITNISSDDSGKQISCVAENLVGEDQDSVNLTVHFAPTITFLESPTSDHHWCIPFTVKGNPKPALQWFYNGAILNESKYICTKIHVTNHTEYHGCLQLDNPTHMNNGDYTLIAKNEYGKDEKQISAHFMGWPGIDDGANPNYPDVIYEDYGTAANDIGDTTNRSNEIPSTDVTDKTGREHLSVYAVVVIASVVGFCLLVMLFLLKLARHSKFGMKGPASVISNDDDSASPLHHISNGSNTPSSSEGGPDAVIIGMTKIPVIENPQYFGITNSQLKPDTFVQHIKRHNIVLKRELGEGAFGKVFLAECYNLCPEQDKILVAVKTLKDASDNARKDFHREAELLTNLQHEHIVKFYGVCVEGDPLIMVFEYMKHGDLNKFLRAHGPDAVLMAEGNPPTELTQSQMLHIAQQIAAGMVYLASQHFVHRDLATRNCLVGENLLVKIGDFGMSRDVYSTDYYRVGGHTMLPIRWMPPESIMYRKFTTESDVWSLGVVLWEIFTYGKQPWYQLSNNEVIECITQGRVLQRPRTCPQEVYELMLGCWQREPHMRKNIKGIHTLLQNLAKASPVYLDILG

B1: BDNF: brain-derived neurotrophic factor (protein, UniProt P23560 19-247, looked up)
Neurotrophic factor BDNF …: APMKEANIRGQGGLAYPGVRTHGTLESVNGPKAGSRGLTSLADTFEHVIEELLDEDQKVRPNEENNKDADLYTSRVMLSSQVPLEPPLLFLLEEYKNYLDAANMSMRVRRHSDPARRGELSVCDSISEWVTAADKKTAVDMSGGTVTVLEKVPVSKGQLKQYFYETKCNPMGYTKEGCRGIDKRHWNSQCRTTQSYVRALTMDSKKRIGWRFIRIDTSCVCTLTIKRGR
In the case of B1, the “luciferase activity in reporter cells expressing TrkB” value (TrkB) is reported as “increased the luciferase activity”.

B2: NRTN: human recombinant neurturin (protein, UniProt Q99748 96-197, looked up)
Neurturin: ARLGARPCGLRELEVRVSELGLGYASDETVLFRYCAGACEAAARVYDLGLRRLRQRRRLRRERVRAQPCCRPTAYEDEVSFLDAHSRYHTVHELSARECACV
In the case of B2, the “level of RET phosphorylation (pRET band normalized to RET)” value (GFRα2-RET) is reported as 3.34±0.41, the “level of ERK phosphorylation (pERK normalized to GAPDH)” value (ERK [1]) is reported as 1.14±0.15 and the “level of AKT phosphorylation (pAKT normalized to GAPDH)” value (AKT [2]) is reported as 1.72±0.13.

B3: GDNF: Human recombinant glial cell line-derived neurotrophic factor (protein, UniProt P39905 78-211, looked up)
Glial cell line-derived …: SPDKQMAVLPRRERNRQAAAANPENSRGKGRRGQRGKNRGCVLTAIHLNVTDLGLGYETKEELIFRYCSGSCDAAETTYDKILKNLSRNRRLVSDKVGQACCRPIAFDDDLSFLDDNLVYHILRKHSAKRCGCI
In the case of B3, the “number of TH-ir cell bodies relative to PBS” value (6-OHDA lesioned rats [3]) is reported as 2.5 times, the “number of TH-ir cell bodies relative to PG” value (6-OHDA lesioned rats [3]) is reported as 2.3 times and the “number of TH-ir cell bodies in the SNpc, Lesioned/Intact side (%)” value (6-OHDA lesioned rats [3]; 12 weeks post lesion, PBS 11.5±0.9, PG 12.6±0.9) is reported as 29.1±2.8 % of the intact side. For the same molecule, the “number of TH-ir fibers (neurite number) in the striatum” value (6-OHDA lesioned rats [4]) was “No statistically significant differences”, the “number of TH-ir neurons” value [5] was 333.0±12.6 and the “DAT-ir fiber density relative to PBS” value (6-OHDA lesioned rats [6]) was 9.9 times. For the same molecule, the “density of DAT-ir fibers in the striatum” value (6-OHDA lesioned rats [6]; 12 weeks post lesion) was 9.9±1.7 % of the intact side, the “number of net ipsilateral turns (120 min)” value (6-OHDA lesioned rats [7]) was 149.1±47.9 and the “GDNF concentration at which effects on neuronal survival are detected” value (dopamine neurons; ref 52) was 1 ng/mL. The “GDNF concentration at which somewhat increase in survival is already detectable” value (dopamine neurons; ref 52) was 0.1 ng/mL, the “GDNF concentration at which effects on neuronal survival are detected” value (dopamine neurons; ref 81) was 5 ng/mL and the “number of TH-ir cells” value [8] was 384.0±35.2. For the same molecule, the survival promoting effect [9] was “did not observe survival promoting effect”, the “level of ERK phosphorylation (pERK normalized to GAPDH)” value (ERK [10]) was 2.76±0.37 and the “TH-ir fiber density relative to PBS treated rats” value (6-OHDA lesioned rats [11]) was 2.6 times. The “density of TH-ir fibers in the striatum” value (6-OHDA lesioned rats [11]) was 15.8±1.6 % of the intact side, the “level of AKT phosphorylation (pAKT normalized to GAPDH)” value (AKT [12]) was 4.77±0.43 and the “number of DAT-ir cell bodies relative to PBS” value (6-OHDA lesioned rats [13]) was 2.2 times. For the same molecule, the “number of DAT-ir cell bodies in the SNpc” value (6-OHDA lesioned rats [13]; 12 weeks post lesion, PBS 9.5±1.4, PG 11.6±1.3) was 20.7±2.9 % of the intact side, the RET activation (RET) was “did not activate RET” and the “level of RET phosphorylation (pRET band normalized to RET)” value (GFRα1-RET) was 2.59±0.33.
